# Source: patent US20230183753A1, “Methods of in Vitro Cell Delivery” (Intellia Therapeutics, Inc., priority 2020, published 2023)
# Oligonucleotides are written 5' to 3', each unit as a sugar letter and its base; * is a phosphorothioate linkage, no mark a phosphodiester; rarer units and linkages stand in square brackets, end groups in braces. Plain capitals give the bases only. m = 2'-O-methyl; r = 2'-OH (RNA)
# Legend:
# [1] = tested on: B2M, TRAC, TRBC1/2, CIITA; test: NGS editing profile of T cells with BC22n or Cas9 mRNA, single or four guides, LNP titration, Example 16A; assay type: cell-based, human; settings: LNP;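 further: activated T cells exposed to LNPs 72 h after activation, kept at 37 °C, harvested on day 10 post activation, editing measured by NGS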
# Description: Cells were expanded in T cell basal media for 72 hours prior to LNP transfection.
# LNPs were mixed to fixed total mRNA weight ratios of 6:3:2 for editor mRNA, guide RNA, and UGI mRNA respectively as described in Table 12. […] LNP mixtures were incubated for 5 minutes at 37° C. in T cell basal media substituting 6% cynomolgus monkey serum (Bioreclamation IVT, Cat. CYN220760) for fetal bovine serum.
# T cells were incubated at 37° C. with 5% CO2 for the duration of the experiment.
# In total, T cells were exposed to 6 different LNPs simultaneously (editor mRNA, UGI mRNA, 4 guides).
# B2M, CD3, MHC II = test: Flow cytometry of antigen negative T cells (B2M, CD3, MHC II) after BC22n or Cas9 editing, Example 16A; assay type: cell-based, human
# Excerpt: Cells were subsequently washed, processed on a Cytoflex instrument (Beckman Coulter) and analyzed using the FlowJo software package. T cells were gated based on size, shape, viability, and antigen expression.
# [2] = multiple guide delivery (four guides simultaneously), locus of the guide assayed, editor BC22n, total RNA 8.6 ng
# [3] = multiple guide delivery (four guides simultaneously), locus of the guide assayed, editor BC22n, total RNA 17.2 ng
# [4] = multiple guide delivery (four guides simultaneously), locus of the guide assayed, editor BC22n, total RNA 34.4 ng
# [5] = multiple guide delivery (four guides simultaneously), locus of the guide assayed, editor BC22n, total RNA 68.8 ng
# [6] = multiple guide delivery (four guides simultaneously), locus of the guide assayed, editor BC22n, total RNA 137.5 ng
# [7] = multiple guide delivery (four guides simultaneously), locus of the guide assayed, editor BC22n, total RNA 275.0 ng
# [8] = multiple guide delivery (four guides simultaneously), locus of the guide assayed, editor BC22n, total RNA 550.0 ng
# [9] = multiple guide delivery (four guides simultaneously), locus of the guide assayed, editor Cas9, total RNA 8.6 ng
# [10] = multiple guide delivery (four guides simultaneously), locus of the guide assayed, editor Cas9, total RNA 17.2 ng
# [11] = multiple guide delivery (four guides simultaneously), locus of the guide assayed, editor Cas9, total RNA 34.4 ng
# [12] = multiple guide delivery (four guides simultaneously), locus of the guide assayed, editor Cas9, total RNA 68.8 ng
# [13] = multiple guide delivery (four guides simultaneously), locus of the guide assayed, editor Cas9, total RNA 137.5 ng
# [14] = multiple guide delivery (four guides simultaneously), locus of the guide assayed, editor Cas9, total RNA 275.0 ng
# [15] = multiple guide delivery (four guides simultaneously), locus of the guide assayed, editor Cas9, total RNA 550.0 ng
# [16] = single guide delivery, editor BC22n, total RNA 8.6 ng
# [17] = single guide delivery, editor BC22n, total RNA 17.2 ng
# [18] = single guide delivery, editor BC22n, total RNA 34.4 ng
# [19] = single guide delivery, editor BC22n, total RNA 68.8 ng
# [20] = single guide delivery, editor BC22n, total RNA 137.5 ng
# [21] = single guide delivery, editor BC22n, total RNA 275.0 ng
# [22] = single guide delivery, editor BC22n, total RNA 550.0 ng
# [23] = single guide delivery, editor Cas9, total RNA 8.6 ng
# [24] = single guide delivery, editor Cas9, total RNA 17.2 ng
# [25] = single guide delivery, editor Cas9, total RNA 34.4 ng
# [26] = single guide delivery, editor Cas9, total RNA 68.8 ng
# [27] = single guide delivery, editor Cas9, total RNA 137.5 ng
# [28] = single guide delivery, editor Cas9, total RNA 275.0 ng
# [29] = single guide delivery, editor Cas9, total RNA 550.0 ng
molecule,measurement,setting,value
G015995: guide targeting B2M (SEQ ID NO: 711) (nucleic acid) guide: mU*mU*mA*rCrCrCrCrArCrUrUrArArCrUrArUrCrUrUrGrUrUrUrUrArGrAmGmCmUmAmGmAmAmAmUmAmGmCrArArGrUrUrArArArArUrArArGrGrCrUrArGrUrCrCrGrUrUrArUrCrAmAmCmUmUmGmAmAmAmAmAmGmUmGmGmCmAmCmCmGmAmGmUmCmGmGmUmGmCmU*mU*mU*mU,C-to-A/G % mean,[1]; [2],3.8%
same,C-to-T % mean,[1]; [2],27.3%
same,Indel % mean,[1]; [2],2.6%
same,C-to-A/G % mean,[1]; [3],4.1%
same,C-to-T % mean,[1]; [3],47.2%
same,Indel % mean,[1]; [3],3.0%
same,C-to-A/G % mean,[1]; [4],3.9%
same,C-to-T % mean,[1]; [4],61.2%
same,Indel % mean,[1]; [4],2.6%
same,C-to-A/G % mean,[1]; [5],2.9%
same,C-to-T % mean,[1]; [5],81.4%
same,Indel % mean,[1]; [5],1.4%
same,C-to-A/G % mean,[1]; [6],2.6%
same,C-to-T % mean,[1]; [6],90.0%
same,Indel % mean,[1]; [6],1.3%
same,C-to-A/G % mean,[1]; [7],2.2%
same,C-to-T % mean,[1]; [7],94.7%
same,Indel % mean,[1]; [7],0.8%
same,C-to-A/G % mean,[1]; [8],2.9%
same,C-to-T % mean,[1]; [8],95.9%
same,Indel % mean,[1]; [8],0.4%
same,C-to-A/G % mean,[1]; [9],1.4%
same,C-to-T % mean,[1]; [9],0.3%
same,Indel % mean,[1]; [9],5.0%
same,C-to-A/G % mean,[1]; [10],1.3%
same,C-to-T % mean,[1]; [10],0.3%
same,Indel % mean,[1]; [10],10.5%
same,C-to-A/G % mean,[1]; [11],1.1%
same,C-to-T % mean,[1]; [11],0.3%
same,Indel % mean,[1]; [11],19.3%
same,C-to-A/G % mean,[1]; [12],0.9%
same,C-to-T % mean,[1]; [12],0.3%
same,Indel % mean,[1]; [12],34.4%
same,C-to-A/G % mean,[1]; [13],0.7%
same,C-to-T % mean,[1]; [13],0.2%
same,Indel % mean,[1]; [13],51.1%
same,C-to-A/G % mean,[1]; [14],0.5%
same,C-to-T % mean,[1]; [14],0.2%
same,Indel % mean,[1]; [14],68.0%
same,C-to-A/G % mean,[1]; [15],0.4%
same,C-to-T % mean,[1]; [15],0.3%
same,Indel % mean,[1]; [15],76.7%
same,C-to-A/G % mean,[1]; [16],7.7%
same,C-to-T % mean,[1]; [16],49.5%
same,Indel % mean,[1]; [16],6.0%
same,C-to-A/G % mean,[1]; [17],6.7%
same,C-to-T % mean,[1]; [17],68.5%
same,Indel % mean,[1]; [17],4.3%
same,C-to-A/G % mean,[1]; [18],5.7%
same,C-to-T % mean,[1]; [18],79.0%
same,Indel % mean,[1]; [18],3.8%
same,C-to-A/G % mean,[1]; [19],4.6%
same,C-to-T % mean,[1]; [19],88.2%
same,Indel % mean,[1]; [19],2.5%
same,C-to-A/G % mean,[1]; [20],4.1%
same,C-to-T % mean,[1]; [20],90.6%
same,Indel % mean,[1]; [20],2.2%
same,C-to-A/G % mean,[1]; [21],3.7%
same,C-to-T % mean,[1]; [21],92.6%
same,Indel % mean,[1]; [21],2.2%
same,C-to-A/G % mean,[1]; [22],2.8%
same,C-to-T % mean,[1]; [22],95.2%
same,Indel % mean,[1]; [22],1.6%
same,C-to-A/G % mean,[1]; [23],1.2%
same,C-to-T % mean,[1]; [23],0.3%
same,Indel % mean,[1]; [23],23.7%
same,C-to-A/G % mean,[1]; [24],0.9%
same,C-to-T % mean,[1]; [24],0.3%
same,Indel % mean,[1]; [24],41.1%
same,C-to-A/G % mean,[1]; [25],0.6%
same,C-to-T % mean,[1]; [25],0.3%
same,Indel % mean,[1]; [25],59.4%
same,C-to-A/G % mean,[1]; [26],0.4%
same,C-to-T % mean,[1]; [26],0.2%
same,Indel % mean,[1]; [26],76.8%
same,C-to-A/G % mean,[1]; [27],0.2%
same,C-to-T % mean,[1]; [27],0.1%
same,Indel % mean,[1]; [27],88.2%
same,C-to-A/G % mean,[1]; [28],0.1%
same,C-to-T % mean,[1]; [28],0.1%
same,Indel % mean,[1]; [28],95.1%
same,C-to-A/G % mean,[1]; [29],0.1%
same,C-to-T % mean,[1]; [29],0.1%
same,Indel % mean,[1]; [29],97.5%
same,"percent cells negative for antigen, B2M neg, Mean %","B2M, CD3, MHC II; editor BC22n, total RNA 8.6 ng",44.0%
same,"percent cells negative for antigen, B2M neg, Mean %","B2M, CD3, MHC II; editor BC22n, total RNA 17.2 ng",60.8%
same,"percent cells negative for antigen, B2M neg, Mean %","B2M, CD3, MHC II; editor BC22n, total RNA 34.4 ng",75.7%
same,"percent cells negative for antigen, B2M neg, Mean %","B2M, CD3, MHC II; editor BC22n, total RNA 68.8 ng",83.9%
same,"percent cells negative for antigen, B2M neg, Mean %","B2M, CD3, MHC II; editor BC22n, total RNA 137.5 ng",91.2%
same,"percent cells negative for antigen, B2M neg, Mean %","B2M, CD3, MHC II; editor BC22n, total RNA 275.0 ng",94.4%
same,"percent cells negative for antigen, B2M neg, Mean %","B2M, CD3, MHC II; editor BC22n, total RNA 550.0 ng",95.7%
same,"percent cells negative for antigen, B2M neg, Mean %","B2M, CD3, MHC II; editor Cas9, total RNA 8.6 ng",13.9%
same,"percent cells negative for antigen, B2M neg, Mean %","B2M, CD3, MHC II; editor Cas9, total RNA 17.2 ng",30.7%
same,"percent cells negative for antigen, B2M neg, Mean %","B2M, CD3, MHC II; editor Cas9, total RNA 34.4 ng",53.4%
same,"percent cells negative for antigen, B2M neg, Mean %","B2M, CD3, MHC II; editor Cas9, total RNA 68.8 ng",68.7%
same,"percent cells negative for antigen, B2M neg, Mean %","B2M, CD3, MHC II; editor Cas9, total RNA 137.5 ng",82.1%
same,"percent cells negative for antigen, B2M neg, Mean %","B2M, CD3, MHC II; editor Cas9, total RNA 275.0 ng",89.3%
same,"percent cells negative for antigen, B2M neg, Mean %","B2M, CD3, MHC II; editor Cas9, total RNA 550.0 ng",91.3%
